Experiments:
POT1 (POT1-N) [1] = target: T1, POT1 (POT1-N) (UniProt Q9NUX5); assay: FTSA (SYPRO Orange); conditions: PNA backbone; printed as TTAGGGTTAG-O; 20 mM potassium phosphate, 180 mM KCl, pH 7.2; FTSA 20-99 °C, typically 5 uM POT1 and 50 uM DNA
T1 sequence: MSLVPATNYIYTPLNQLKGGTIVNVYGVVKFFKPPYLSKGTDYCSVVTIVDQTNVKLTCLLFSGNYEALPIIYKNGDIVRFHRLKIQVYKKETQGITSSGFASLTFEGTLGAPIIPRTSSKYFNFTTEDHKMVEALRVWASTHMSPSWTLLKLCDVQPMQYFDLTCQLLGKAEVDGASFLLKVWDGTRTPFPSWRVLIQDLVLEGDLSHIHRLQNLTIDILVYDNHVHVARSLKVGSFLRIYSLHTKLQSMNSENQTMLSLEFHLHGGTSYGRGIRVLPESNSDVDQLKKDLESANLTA

POT1 (POT1-N) [2] = target: T2, POT1 (POT1-N) (UniProt Q9NUX5 1-299); assay: FTSA (SYPRO Orange); no appreciable Tm shift; 20 mM potassium phosphate, 180 mM KCl, pH 7.2; FTSA 20-99 °C, typically 5 uM POT1 and 50 uM DNA; conditions: protein: recombinant; tags: C-terminal 6xHis; single strand
T2 sequence: T1 sequence

POT1 (POT1-N) [3] = target: T2, POT1 (POT1-N); assay: FTSA titration (SYPRO Orange), Model 2; dCp_b fixed at 0; binding enthalpy and entropy fitted; dG25 -57.7 kJ/mol; 20 mM potassium phosphate, 180 mM KCl, pH 7.2; FTSA 20-99 °C, typically 5 uM POT1 and 50 uM DNA; conditions: protein: recombinant; tags: C-terminal 6xHis; single strand
POT1 (POT1-N) [4] = target: T2, POT1 (POT1-N); assay: FTSA titration (SYPRO Orange), Model 3; dCp_b 0; binding entropy and unfolding enthalpy fitted; dG25 -57.9 kJ/mol; 20 mM potassium phosphate, 180 mM KCl, pH 7.2; FTSA 20-99 °C, typically 5 uM POT1 and 50 uM DNA; conditions: protein: recombinant; tags: C-terminal 6xHis; single strand
POT1 (POT1-N) [5] = target: T2, POT1 (POT1-N); assay: FTSA titration (SYPRO Orange), Model 1; dCp_b -4300 J/mol/K; binding enthalpy fixed at -139 kJ/mol; dG25 -66.1 kJ/mol; 20 mM potassium phosphate, 180 mM KCl, pH 7.2; FTSA 20-99 °C, typically 5 uM POT1 and 50 uM DNA; conditions: protein: recombinant; tags: C-terminal 6xHis; single strand

Molecule: TTAGGGTTAG [PNA of O1]
- binding signal (°C (delta Tm)) (POT1 (POT1-N) [1]): 1

Molecule: CTAACCCTAA (ssDNA) [O1c (negative control)]
- binding result (POT1 (POT1-N) [2]): no binding

Molecule: TTAGGGTTAG (ssDNA) [O1]
- Ka (POT1 (POT1-N) [3]): 1e+10 M⁻¹
- Ka (POT1 (POT1-N) [4]): 1e+10 M⁻¹
- Ka (POT1 (POT1-N) [5]): 4e+11 M⁻¹

— publication PMC8009405, “POT1 stability and binding measured by fluorescence thermal shift assays”
